The results in this text go back to paper PMC13326754.

Data set [1] has as its system U2AF1alpha (Fritillaria borealis). Description: EMSA. Conditions: 330 nM; single U2AF1; never exceeded 5% bound; EMSA: 20 mM Hepes, 0.1 M NaCl, 5% glycerol, 0.5% Tween-20, pH 7.8, 50 ng/ul BSA, 0.5 mM TCEP, 0.5 mM EDTA; 1 h on ice; 6% PAGE 0.5x TBE at 4 C. On the technique in general: A gel shift assay detects complexes by their altered migration in electrophoresis.
Data set [2] deals with U2AF1beta (Fritillaria borealis). Description: EMSA. The conditions noted are these: 330 nM; single U2AF1; never exceeded 5% bound; EMSA: 20 mM Hepes, 0.1 M NaCl, 5% glycerol, 0.5% Tween-20, pH 7.8, 50 ng/ul BSA, 0.5 mM TCEP, 0.5 mM EDTA; 1 h on ice; 6% PAGE 0.5x TBE at 4 C.
The target of data set [3] is GST-U2AF1α (Fritillaria borealis U2AF small subunit, paralog α) (Fritillaria borealis). The experiment in a line: pull-down; GST-U2AF1 baits co-expressed with U2AF2-V5 in HEK293T cells; glutathione beads; washes under increasing salt concentration; western blot for V5 and GST. (In general: In western blotting, separated proteins are transferred to a membrane and probed.)

Turning to “GGGCUGUCCUCUUUUUUUUUUCAGGCGUCU [ORN.PyU]”, the binding signal in data set [1] and in data set [2] was under 5 % bound throughout.
On to GGGUCGCUUCUCCCCCCCCCUAGGCGUCU [ORN.PyC], for which the binding signal in data set [1] and in data set [2] was under 5 % bound in each case.
As for “U2AF2α-V5 (Fritillaria borealis U2AF large subunit, paralog α, V5/6xHis tagged) (natural protein)”, in data set [3], the excess protein bound on glutathione beads relative to U2AF2β lay within 10 to 35%.
